Laboratory results as given in the Immune Epitope Database (IEDB).

How the values were obtained:
Assay in all cases: IEDB peptide-MHC binding, purified MHC/competitive/radioactivity; filed as Kd, often an IC50 or EC50 that approximates it; ≥ and ≤ were set here for values at or beyond the usual limits of such assays
HLA-A*30:02 = target: HLA-A*30:02
HLA-A*26:01 = target: HLA-A*26:01
HLA-A*30:01 = target: HLA-A*30:01
HLA-A*32:01 = conditions: source organism: Lymphocytic choriomeningitis virus (strain Armstrong)
HLA-A*01:01 = target: HLA-A*01:01
HLA-A*29:02 = target: HLA-A*29:02
HLA-A*23:01 = target: HLA-A*23:01
HLA-A*24:02 = target: HLA-A*24:02
HLA-A*02:02 = target: HLA-A*02:02
HLA-A*02:03 = target: HLA-A*02:03
HLA-A*02:01 = target: HLA-A*02:01
HLA-A*02:06 = target: HLA-A*02:06
HLA-A*68:02 = target: HLA-A*68:02
HLA-B*35:01 = conditions: source organism: Dengue virus 4 Philippines/H241/1956
HLA-B*15:01 = target: HLA-B*15:01
HLA-B*53:01 = conditions: source organism: Dengue virus 4 Philippines/H241/1956
HLA-B*07:02 = conditions: source organism: Dengue virus 4 Philippines/H241/1956
[1] = source organism: Lymphocytic choriomeningitis virus (strain Armstrong)
[2] = source organism: Mammarenavirus mopeiaense
[3] = source organism: Lassa virus Josiah
[4] = source organism: SARS coronavirus Tor2
[5] = source organism: Vaccinia virus WR
[6] = source organism: Hepacivirus hominis

Sequence: KTGESSRCY
- Kd (HLA-A*30:02; [1]): 101 nM
- Kd (HLA-A*26:01; [1]): ≥ 77900 nM
- Kd (HLA-A*30:01; [1]): 3520 nM
- Kd (HLA-A*32:01): ≥ 77800 nM
- Kd (HLA-A*01:01; [1]): 7280 nM
- Kd (HLA-A*29:02; [1]): 4380 nM

Sequence: PYIASRTSIV
- Kd (HLA-A*30:02; [2]): ≥ 37300 nM
- Kd (HLA-A*26:01; [2]): ≥ 69700 nM
- Kd (HLA-A*23:01; [2]): 1590 nM
- Kd (HLA-A*24:02; [2]): 2500 nM
- Kd (HLA-A*01:01; [2]): ≥ 44500 nM
- Kd (HLA-A*29:02; [2]): ≥ 32600 nM

Sequence: RLLGTFTWT
- Kd (HLA-A*02:02; [3]): 323 nM
- Kd (HLA-A*02:03; [3]): 104 nM
- Kd (HLA-A*02:01; [3]): 33.8 nM
- Kd (HLA-A*02:06; [3]): 137 nM
- Kd (HLA-A*68:02; [3]): ≥ 5000 nM

Sequence: SYREAACCHL
- Kd (HLA-A*30:02; [4]): 7040 nM
- Kd (HLA-A*26:01; [4]): ≥ 69700 nM
- Kd (HLA-A*23:01; [4]): 643 nM
- Kd (HLA-A*24:02; [4]): 221 nM
- Kd (HLA-A*01:01; [4]): ≥ 25100 nM
- Kd (HLA-A*29:02; [4]): ≥ 28900 nM

Sequence: YEDQDALFAY
- Kd (HLA-A*30:02; [4]): 2030 nM
- Kd (HLA-A*26:01; [4]): ≥ 64800 nM
- Kd (HLA-A*23:01; [4]): ≥ 70000 nM
- Kd (HLA-A*24:02; [4]): ≥ 70300 nM
- Kd (HLA-A*01:01; [4]): ≥ 92600 nM
- Kd (HLA-A*29:02; [4]): 530 nM

Sequence: LAMTDTTPF
- Kd (HLA-B*35:01): 1.67 nM
- Kd (HLA-B*15:01; source organism: Dengue virus 4 Philippines/H241/1956): 3.92 nM
- Kd (HLA-B*53:01): 94.3 nM

Sequence: QFIHFYREPV
- Kd (HLA-A*30:02; [1]): 5150 nM
- Kd (HLA-A*26:01; [1]): ≥ 69700 nM
- Kd (HLA-A*23:01; [1]): ≥ 69500 nM
- Kd (HLA-A*24:02; [1]): ≥ 70300 nM
- Kd (HLA-A*01:01; [1]): ≥ 41300 nM
- Kd (HLA-A*29:02; [1]): ≥ 39400 nM

Sequence: TPEGIIPTLF
- Kd (HLA-B*35:01): 93.5 nM
- Kd (HLA-B*07:02): 920 nM
- Kd (HLA-B*53:01): 38.1 nM

Sequence: ALALEEKRRL
- Kd (HLA-A*02:01; source organism: Homo sapiens): 12200 nM
- Kd (HLA-A*68:02; source organism: Homo sapiens): ≥ 63800 nM

Sequence: MMCYFLTATP
- Kd (HLA-A*02:01; [5]): 18 nM

Sequence: MSIVCIVAA
- Kd (HLA-B*15:01; [5]): 3070 nM

Sequence: MSKSHAAYI
- Kd (HLA-A*30:01; [5]): 0.227 nM

Sequence: KLSGLGFNAV
- Kd (HLA-A*02:02; [6]): 5.4 nM
- Kd (HLA-A*02:03; [6]): 2.8 nM
- Kd (HLA-A*02:01; [6]): 19.3 nM
- Kd (HLA-A*02:06; [6]): 24.5 nM
- Kd (HLA-A*68:02; [6]): 6110 nM
